For 1 substance, stoichiometry N results are on record in PMC6981215.

The target in the assay is Momordica charantia 7S globulin (Momordica charantia). In words: SEC; HiLoad 16/60 Superdex 200 pg, 50 mM Tris pH 7.4 with 150 mM NaCl, 0.5 ml/min; peak at ~69.2 ml, mass estimated from a calibration with high molecular weight standards.

One may read the stoichiometry N as a count of units in the complex or per binding partner. As to “Momordica charantia 7S globulin (natural protein)”, the stoichiometry N was 3.
